Results as given in the Human Domainome abundance scans (Beltran et al. 2025).
± gives the uncertainty stated by the source.

B1: Cyclin-F, residues 28 to 80; numbered along this chain, P41002 (parent)
chain: RNLTILSLPEDVLFHILKWLSVEDILAVRAVHSQLKDLVDNHASVWACASFQE
B2: Ankyrin-1, residues 1405 to 1484; numbered along this chain, P16157 (parent)
chain: MKMAVISEHLGLSWAELARELQFSVEDINRIRVENPNSLLEQSVALLNLWVIREGQNANMENLYTALQSIDRGEIVNMLE

Variants of: B1
Assay: abundance fitness (aPCA) (normalised: wild type 0, dead -1); higher = more abundant; growth selection in yeast, the domain comes from the species named
Settings: Homo sapiens

Abundance fitness of substitutions, site by site:
I5: A -0.657 ± 0.11 | C -0.692 ± 0.16 | D -0.868 ± 0.14 | K -0.758 ± 0.19 | G -0.78 ± 0.097 | S -1.04 ± 0.15 | E -0.679 ± 0.21 | W -0.615 ± 0.15 | P -0.559 ± 0.15 | V -0.243 ± 0.087 | T -0.697 ± 0.17 | N -0.907 ± 0.19 | F -0.254 ± 0.16 | H -0.771 ± 0.18 | Y -0.544 ± 0.18 | M -0.254 ± 0.12 | L 0.12 ± 0.091
V12: K -1.07 ± 0.29 | P -0.733 ± 0.13 | M -0.924 ± 0.17 | D -0.816 ± 0.21 | N -1.02 ± 0.44 | C -0.343 ± 0.28 | I 0.033 ± 0.093 | G -0.764 ± 0.15 | Q -0.747 ± 0.15 | L -0.281 ± 0.096 | F -1.02 ± 0.22 | A -0.816 ± 0.16 | H -0.732 ± 0.28 | Y -0.846 ± 0.21 | W -0.851 ± 0.16 | S -0.85 ± 0.15 | R -0.909 ± 0.13 | T -0.493 ± 0.13
F14: M 0.181 ± 0.083 | R 0.056 ± 0.069 | G -0.293 ± 0.082 | D -0.762 ± 0.14 | A 0.132 ± 0.085 | T 0.061 ± 0.094 | C -0.162 ± 0.095 | V 0.198 ± 0.075 | P -0.954 ± 0.2 | Q -0.08 ± 0.1 | S -0.158 ± 0.08 | E -0.074 ± 0.13 | W 0.347 ± 0.083 | H -0.324 ± 0.14 | K 0.226 ± 0.093 | L 0.179 ± 0.074 | Y -0.153 ± 0.15
H15: I -0.21 ± 0.19 | C -0.091 ± 0.17 | M -0.116 ± 0.14 | T -0.455 ± 0.13 | E -0.222 ± 0.15 | Y -0.388 ± 0.075 | L -0.204 ± 0.1 | F -0.499 ± 0.15 | R 0.222 ± 0.089 | Q -0.356 ± 0.17 | N 0.226 ± 0.14 | W -0.561 ± 0.18 | V -0.55 ± 0.13 | S -0.235 ± 0.12 | D -0.408 ± 0.18 | A -0.279 ± 0.14 | P -0.731 ± 0.17 | K 0.216 ± 0.15
I16: C -0.341 ± 0.18 | T -0.805 ± 0.22 | K -1.11 ± 0.43 | S -0.664 ± 0.15 | P -0.673 ± 0.22 | H -1.02 ± 0.31 | E -0.773 ± 0.23 | R -0.501 ± 0.093 | W -0.823 ± 0.17 | A -0.901 ± 0.14 | Y -0.641 ± 0.24 | G -0.701 ± 0.095 | M -0.32 ± 0.14 | L -0.646 ± 0.11 | N -1.04 ± 0.34
E10: W -0.737 ± 0.12 | S -0.233 ± 0.082 | D -0.225 ± 0.12 | C -0.585 ± 0.15 | H -0.166 ± 0.1 | V -0.524 ± 0.11 | K 0.24 ± 0.14 | A -0.208 ± 0.12 | P -0.357 ± 0.11 | N -0.589 ± 0.19 | I -0.576 ± 0.16 | F -0.449 ± 0.14 | R -0.054 ± 0.072 | T -0.35 ± 0.12 | M -0.558 ± 0.15 | L -0.646 ± 0.098 | G -0.566 ± 0.096 | Y -0.505 ± 0.14
L8: V -0.915 ± 0.26 | Q -0.925 ± 0.39 | T -0.651 ± 0.35 | C -0.993 ± 0.38 | G -0.939 ± 0.23 | R -0.833 ± 0.24 | S -0.635 ± 0.33 | N -0.755 ± 0.29 | K -0.744 ± 0.44 | M -0.407 ± 0.4 | A -0.509 ± 0.31
L13: D -0.644 ± 0.44 | F 0.091 ± 0.28 | S -0.67 ± 0.2 | V -0.141 ± 0.14 | C -0.933 ± 0.35 | Q -0.093 ± 0.19 | W -0.204 ± 0.21 | M -0.138 ± 0.14 | K -0.431 ± 0.23 | R -0.633 ± 0.26 | T -0.001 ± 0.17 | E -0.81 ± 0.32 | G -0.692 ± 0.14 | Y -0.306 ± 0.37
P9: R -0.692 ± 0.088 | K -0.818 ± 0.15 | N -0.882 ± 0.33 | V -0.59 ± 0.11 | C -0.676 ± 0.15 | M -1.04 ± 0.21 | E -0.646 ± 0.12 | D -0.541 ± 0.16 | G -0.413 ± 0.081 | F -0.621 ± 0.15 | I -0.847 ± 0.28 | H -0.949 ± 0.19 | Y -0.932 ± 0.18 | T -0.69 ± 0.14 | S -0.672 ± 0.11 | A -0.778 ± 0.11 | Q -0.735 ± 0.14
L3: E -0.727 ± 0.16 | D -0.598 ± 0.21 | N -0.337 ± 0.2 | T -0.437 ± 0.15 | R -0.134 ± 0.077 | A -0.708 ± 0.13 | K -0.354 ± 0.16 | M -0.276 ± 0.13 | W -0.596 ± 0.1 | C -0.316 ± 0.094 | P -0.322 ± 0.13 | Q -0.863 ± 0.31 | Y 0.109 ± 0.18 | I -0.112 ± 0.17 | G -0.435 ± 0.079 | S -0.09 ± 0.098 | F -0.078 ± 0.17 | H -0.283 ± 0.15
R1: I 0.032 ± 0.34 | L -0.305 ± 0.44 | A -1.04 ± 0.42 | N 0.134 ± 0.27 | W -0.914 ± 0.28 | K 0.091 ± 0.42 | G -0.193 ± 0.12 | S 0.016 ± 0.15 | C -0.246 ± 0.16 | M -0.359 ± 0.31 | T -0.058 ± 0.13 | V -0.465 ± 0.2
L17: D -0.868 ± 0.28 | E -1.06 ± 0.23 | F 0.056 ± 0.12 | A -0.781 ± 0.13 | G -0.547 ± 0.099 | C -0.223 ± 0.14
T4: N -0.046 ± 0.14 | C -0.55 ± 0.17 | L -0.836 ± 0.13 | E -0.605 ± 0.15 | S 0.087 ± 0.093 | D -0.076 ± 0.11 | Q -0.481 ± 0.15 | R -0.735 ± 0.1 | H -0.059 ± 0.14 | W -0.65 ± 0.14 | V -0.997 ± 0.15 | Y -0.85 ± 0.29 | I -0.866 ± 0.23 | K -0.611 ± 0.22 | G -0.068 ± 0.082 | A -0.768 ± 0.13 | M -0.695 ± 0.17
S7: G -0.31 ± 0.076 | F -0.547 ± 0.14 | C -0.316 ± 0.12 | H -0.242 ± 0.15 | Q -0.232 ± 0.13 | D 0.101 ± 0.13 | Y -0.869 ± 0.22 | A -0.427 ± 0.1 | V -0.647 ± 0.11 | P -0.767 ± 0.17 | W -0.693 ± 0.12 | N -0.118 ± 0.13 | K -0.109 ± 0.13 | T -0.381 ± 0.13 | E -0.27 ± 0.11 | M -0.195 ± 0.14 | I -0.426 ± 0.2 | L -0.647 ± 0.1
D11: I -0.43 ± 0.25 | R -0.099 ± 0.08 | N 0.046 ± 0.091 | K 0.269 ± 0.14 | F -0.823 ± 0.22 | W -0.731 ± 0.14 | P -0.132 ± 0.16 | A 0.028 ± 0.1 | Y -0.556 ± 0.22 | E -0.153 ± 0.14 | H -0.384 ± 0.15 | S 0.093 ± 0.087 | G -0.104 ± 0.082 | Q -0.049 ± 0.13 | C -0.18 ± 0.12 | V -0.269 ± 0.1 | M -0.488 ± 0.16
L6: V -0.665 ± 0.13 | M -0.486 ± 0.15 | C -0.695 ± 0.13 | T -0.486 ± 0.12 | R -0.83 ± 0.099 | F -0.356 ± 0.16 | D -0.593 ± 0.29 | Q -0.427 ± 0.15 | P -0.674 ± 0.16 | Y -0.423 ± 0.15 | H -0.691 ± 0.24 | N -0.691 ± 0.17 | E -0.889 ± 0.24 | K -0.806 ± 0.18 | S -0.885 ± 0.13 | A -0.898 ± 0.15 | W -0.678 ± 0.12
N2: S -0.129 ± 0.085 | F -0.407 ± 0.19 | H -0.065 ± 0.14 | Q -0.331 ± 0.14 | C -0.357 ± 0.12 | P -0.185 ± 0.11 | V -0.089 ± 0.11 | T -0.168 ± 0.11 | R -0.078 ± 0.085 | E -0.348 ± 0.19 | K -0.182 ± 0.13 | D -0.306 ± 0.19 | A -0.492 ± 0.14 | W -0.871 ± 0.13 | I -0.618 ± 0.23 | Y -0.366 ± 0.14

Variants of: B2
Assay: as above
Settings: Homo sapiens

Abundance fitness of substitutions, site by site:
N77: K 0.03 ± 0.12 | W 0.018 ± 0.1 | R 0.08 ± 0.065 | D -0.347 ± 0.19 | S -0.005 ± 0.073 | Q 0.148 ± 0.11 | H -0.175 ± 0.22 | P -0.283 ± 0.11 | C -0.479 ± 0.18 | L -0.043 ± 0.07 | M -0.152 ± 0.12 | Y -0.215 ± 0.16 | T 0.041 ± 0.082 | A 0.084 ± 0.061 | E -0.111 ± 0.11 | V -0.078 ± 0.11
V76: W -0.388 ± 0.044 | T -0.244 ± 0.067 | Y -0.264 ± 0.11 | Q -0.505 ± 0.12
M78: I 0.041 ± 0.12 | A -0.003 ± 0.061 | S -0.121 ± 0.066 | K 0.087 ± 0.11 | R 0.034 ± 0.051 | H -0.158 ± 0.15 | V 0.043 ± 0.061 | L 0.001 ± 0.059 | G -0.085 ± 0.065 | W -0.19 ± 0.075 | T 0.085 ± 0.091 | Q -0.061 ± 0.098 | D -0.013 ± 0.096 | N -0.01 ± 0.15 | C 0.065 ± 0.085 | F -0.146 ± 0.11 | E -0.236 ± 0.14
L79: Q -0.115 ± 0.11 | G -0.379 ± 0.059 | P -0.3 ± 0.12 | Y -0.319 ± 0.14 | D -0.54 ± 0.32 | K -0.429 ± 0.21 | S 0.014 ± 0.052 | A 0.002 ± 0.064 | C 0.045 ± 0.13 | V 0.132 ± 0.049 | E -0.335 ± 0.11 | R -0.528 ± 0.082 | I -0.019 ± 0.11 | H -0.199 ± 0.15 | M 0.039 ± 0.082 | T -0.202 ± 0.096 | F -0.331 ± 0.14
E80: N -0.045 ± 0.14 | I -0.682 ± 0.26 | R -0.17 ± 0.13 | Y -0.048 ± 0.1 | V -0.154 ± 0.13 | G 0.126 ± 0.08 | D 0.164 ± 0.071 | F -0.023 ± 0.1 | A -0.083 ± 0.081 | P 0.049 ± 0.21 | H -0.06 ± 0.11 | C -0.092 ± 0.099 | S -0.056 ± 0.099 | L -0.329 ± 0.12
